Values quoted from earlier work, collected in PMC4792251.
Read-outs that look alike come from different tables or passages of the source.

Columns and labels:
[1] = target: Mcl-1 (Homo sapiens) (UniProt Q07820)
[2] = target: BHRF1 (Epstein-Barr virus) (UniProt P03182)
[3] = target: Mcl-1 (Homo sapiens) (UniProt Q07820); remark: listed apart in the source

Sequence of UniProt Q07820 (Q07820 whole entry): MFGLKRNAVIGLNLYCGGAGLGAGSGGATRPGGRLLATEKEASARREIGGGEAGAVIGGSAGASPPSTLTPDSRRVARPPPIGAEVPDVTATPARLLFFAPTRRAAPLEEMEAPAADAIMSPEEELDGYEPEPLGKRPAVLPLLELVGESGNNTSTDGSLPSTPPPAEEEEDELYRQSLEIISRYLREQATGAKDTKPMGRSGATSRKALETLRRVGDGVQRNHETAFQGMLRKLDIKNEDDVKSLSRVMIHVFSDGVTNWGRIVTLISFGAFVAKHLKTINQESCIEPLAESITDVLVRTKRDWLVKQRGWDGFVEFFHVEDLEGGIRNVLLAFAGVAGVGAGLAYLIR
Sequence of Bid BH3 peptide (P55957 80-99): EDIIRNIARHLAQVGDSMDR
Sequence of UniProt P03182 (P03182 whole entry): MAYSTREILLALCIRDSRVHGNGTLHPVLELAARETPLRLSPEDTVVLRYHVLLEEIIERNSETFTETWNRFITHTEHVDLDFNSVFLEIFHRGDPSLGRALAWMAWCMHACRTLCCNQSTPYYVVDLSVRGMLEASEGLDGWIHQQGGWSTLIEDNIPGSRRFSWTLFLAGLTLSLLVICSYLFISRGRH
Sequence of Noxa B BH3 peptide (Q9JM54 68-87): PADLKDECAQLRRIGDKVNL

## Bid BH3 peptide
[1]
  Kd: < 10 nM
[2]
  Kd: 99 nM

## Noxa B BH3 peptide
[3]
  Kd: 28 nM
